Reference: the supplement of paper PMC9170038

Test system: MS2 coat protein
Assay: apparent KD of MS2 coat protein; designed switch direction (-1 OFF switch, 1 ON switch): -1; higher = weaker reporter binding
In short: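 Each step of the titration lasted 0.8–1.5 h at the lowest concentration and 10–20 min at the highest. The protein, SNAP-549-labelled MS2 coat protein, went from 0.7 or 1.5 nM doubling to 3 µM over RNA switches transcribed on Illumina chips by stalled E. coli RNA polymerase. Normalised cluster fluorescence was curve-fitted, and the per-design median over clusters is given as apparent KD.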

[1] = Eterna round: R95, input ligand: microRNA oligo, concentration not stated
[2] = input ligand: microRNA oligo, concentration not stated
[3] = Eterna round: R95, input ligand: FMN 200 uM
[4] = Eterna round: R95, input ligand: none

Sequence: AGGGAUAAAGGAUAUACAUGAGGAUCACCCAUGUUGAGGAAAGUGAGAGGUGGCGAUAGUAGAAGGUUAGGUGG [JR_Exclu3_Sub083] (puzzle: Exclusion 3)
- apparent KD of MS2 coat protein [1]: 79.9 nM

Sequence: AGGGCACAUGAGGAUCACCCAUGUGAGGAUAUCCCGGUACUAUCGAUGUAGUAAUCGUGGAGAAGGCACACGAC [EX1 C.21] (Eterna round: R97, puzzle: Exclusion 1)
- apparent KD of MS2 coat protein (input ligand: FMN 200 uM): 90.3 nM
- apparent KD of MS2 coat protein (input ligand: none): 62.6 nM

Sequence: AGGUAACAUGAGGAUCACCCAUGUCAGGAUAUCAGUAAGAUGAGAAUAGAGUAGAGUAUGAGAAGGGACUAUAU [Excluse me! 21 - Jieux - Exclusion 1] (puzzle: Exclusion 1)
- apparent KD of MS2 coat protein [1]: 37.4 nM

Sequence: AGGUAACAUGAGGAUCACCCAUGUCAGGAUAUCAGUAAGAUUAGAAUAGAGUAGAGGAUGAGAAGGGACUAUAU [Excluse me! 19- Jieux - Exclusion 1] (puzzle: Exclusion 1)
- apparent KD of MS2 coat protein [1]: 42.7 nM

Sequence: AGGUAACAUGAGGAUCACCCAUGUCAGGAUAUCAUGAAGAGGAGAUUAGAGGAGAGGUUGAGAAGGGACUAUAU [Excluse me! 14 - Jieux - Exclusion 1] (puzzle: Exclusion 1)
- apparent KD of MS2 coat protein [1]: 57.1 nM

Sequence: AGGUACUUCAGGAGACAUGAGGAUCACCCAUGUUGAGUUAGCGAGGAUAUCGGUAACCAUUGUUAUGAGAAGGCGCAAACCAGA [Ex NG3 #42] (Eterna round: R96, puzzle: Exclusion NG 3)
- apparent KD of MS2 coat protein (input ligand: FMN 200 uM): 25.9 nM
- apparent KD of MS2 coat protein [2]: 15 nM
- apparent KD of MS2 coat protein (input ligand: none): 15.3 nM

Sequence: AGGUCACAUGAGGAUCACCCAUGUCAGGAUAUCUACAUUGAAGCCUCGGCUUCAAUGUAGAGAAGGGACAAUUA [E1/6-B2] (Eterna round: R97, puzzle: Exclusion 1)
- apparent KD of MS2 coat protein (input ligand: FMN 200 uM): 209 nM
- apparent KD of MS2 coat protein (input ligand: none): 72.2 nM

Sequence: AGGUCACAUGAGGAUCACCCAUGUGAGGAUAUUUACUCAAGAGCUUCGGCUCUCAAGUGAAGAAGGCGCAAUGA [EX1 #53] (Eterna round: R97, puzzle: Exclusion 1)
- apparent KD of MS2 coat protein (input ligand: FMN 200 uM): 34.6 nM
- apparent KD of MS2 coat protein (input ligand: none): 32.8 nM

Sequence: AGGUGACAUGAGGAUCACCCAUGUAAGGAUAUACGGUUAGUGGAGAGUUGGAAGAGAGGUAGAAGGUACGGAGC [JR_Exclu1_Sub059] (puzzle: Exclusion 1)
- apparent KD of MS2 coat protein [1]: 197 nM

Sequence: AGGUGAGCCGUCAGGAUAUGCGUUCCGUAGGGUCAGCAGAAGGGACAUGAGGAUCACCCAUGUUUCGCACGUGG [Veraxedi] (Eterna round: R96, puzzle: Brourd's mod of Exclusion 4)
- apparent KD of MS2 coat protein (input ligand: FMN 200 uM): 76.5 nM
- apparent KD of MS2 coat protein [2]: 23.5 nM
- apparent KD of MS2 coat protein (input ligand: none): 31.5 nM

Sequence: AGGUGAGCCGUCAGGAUAUGCGUUCCGUAGGGUCAGCAGAAGGGACAUGAGGAUCACCCAUGUUUCGCACGUGG [Veraxedi] (puzzle: Brourd's mod of Exclusion 4)
- apparent KD of MS2 coat protein [1]: 31 nM

Sequence: AGGUGCCUCUGGAAACAUGAGGAUCACCCAUGUUGAGUUAGCGAGGAUAUCGGUAACCAUUGUUAUGAGAAGGCGCAAACCAGA [Ex NG3 #38] (Eterna round: R96, puzzle: Exclusion NG 3)
- apparent KD of MS2 coat protein (input ligand: FMN 200 uM): 60.7 nM
- apparent KD of MS2 coat protein [2]: 19.6 nM
- apparent KD of MS2 coat protein (input ligand: none): 27.6 nM

Sequence: AGGUGGAAGCAGGAUAUGCUUGUAUAAUUGAUAGCAGAAGGGCUAACAUGAGGAUCACCCAUGUAAGAGGUGUA [JR_E6_Sub058] (puzzle: Exclusion 6)
- apparent KD of MS2 coat protein [3]: 340 nM
- apparent KD of MS2 coat protein [1]: 177 nM
- apparent KD of MS2 coat protein [4]: 206 nM

Sequence: AGGUGUAGAGGAUAUCUAUCCUCCCACAUGAGGAUCACCCAUGUCCUGGUCACCAAGGACGGAGAAGGCUACACCA [Omei Ex5 D19] (Eterna round: R97, puzzle: Exclusion 5)
- apparent KD of MS2 coat protein (input ligand: FMN 200 uM): 153 nM
- apparent KD of MS2 coat protein (input ligand: none): 292 nM

Sequence: AGGUGUAGAGGAUAUCUCUUCUCUCACAUGAGGAUCACCCAUGUCCUGGGCACCAAGGAGAGAGAAGGCUACACCA [Omei Ex5 D10] (Eterna round: R97, puzzle: Exclusion 5)
- apparent KD of MS2 coat protein (input ligand: FMN 200 uM): 72.7 nM
- apparent KD of MS2 coat protein (input ligand: none): 271 nM

Sequence: AGGUGUAGAGGAUAUCUCUUCUCUCACAUGAGGAUCACCCAUGUCCUGGUCACCAAGGAGAGAGAAGGCUACACCA [Omei Ex5 D9] (Eterna round: R97, puzzle: Exclusion 5)
- apparent KD of MS2 coat protein (input ligand: FMN 200 uM): 56.4 nM
- apparent KD of MS2 coat protein (input ligand: none): 76.4 nM

Sequence: AGGUGUAGAGGAUAUUCAUUCUUCCACAUGAGGAUCACCCAUGUCCCGGUCACCAGGGACGGAGAAGGCUACACCA [Omei Ex5 D26] (Eterna round: R97, puzzle: Exclusion 5)
- apparent KD of MS2 coat protein (input ligand: FMN 200 uM): 108 nM
- apparent KD of MS2 coat protein (input ligand: none): 76.8 nM

Sequence: AGGUGUCUCUGGAAACAUGAGGAUCACCCAUGUUGAGUUAGCGAGGAUAUCGGUAACCAUUGUUAUGAGAAGGCGCAAACCAGA [Ex NG3 #39] (Eterna round: R96, puzzle: Exclusion NG 3)
- apparent KD of MS2 coat protein (input ligand: FMN 200 uM): 14.8 nM
- apparent KD of MS2 coat protein [2]: 18.3 nM
- apparent KD of MS2 coat protein (input ligand: none): 25.4 nM

Sequence: AGUAACAGAGGAUAUACUAUUUUAUGUGUUUAUUGUUUUGAACAUGAGGAUCACCCAUGUAGAAGGCUGAAUAA [JMF 95] (puzzle: Exclusion 2)
- apparent KD of MS2 coat protein [1]: 24.5 nM

Sequence: AGUAACAGAGGAUAUACUAUUUUAUGUGUUUGUUAUUUUAAACAUGAGGAUCACCCAUGUAGAAGGCUGAAUAA [JMF 84] (puzzle: Exclusion 2)
- apparent KD of MS2 coat protein [1]: 21 nM

Sequence: AGUAACAGAGGAUAUACUGUUUUAUGUGUUUGUUGUUUUAAACAUGAGGAUCACCCAUGUAGAAGGCUGAAUAA [JMF 87] (puzzle: Exclusion 2)
- apparent KD of MS2 coat protein [1]: 18.8 nM

Sequence: AGUAACCGUCACGAAAGUGAUGGUUACGCAAGCAAAUGUACAUGAGGAUCACCCAUGUCCUCAAUUGCUCGUCUUAU [Sensor 3 - 51] (puzzle: Sensor v3, turn-off variant 2)
- apparent KD of MS2 coat protein [3]: 102 nM
- apparent KD of MS2 coat protein [1]: 175 nM
- apparent KD of MS2 coat protein [4]: 114 nM

Sequence: AGUAACUAUCACGAAAGUGAUAGUUACAACAAGUGAUAAACAUGAGGAUCACCCAUGUCCUCAUUUGUUCGUCUUAU [Sensor 3 - 14] (puzzle: Sensor v3, turn-off variant 2)
- apparent KD of MS2 coat protein [3]: 240 nM
- apparent KD of MS2 coat protein [1]: 373 nM
- apparent KD of MS2 coat protein [4]: 225 nM

Sequence: AGUAACUAUCACGAAAGUGAUAGUUACACAAGUAGUGAAACAUGAGGAUCACCCAUGUCCUCAUUUGCUCGUCUUAU [Sensor 3 - 33] (puzzle: Sensor v3, turn-off variant 2)
- apparent KD of MS2 coat protein [3]: 461 nM
- apparent KD of MS2 coat protein [1]: 168 nM
- apparent KD of MS2 coat protein [4]: 925 nM

Sequence: AGUAACUAUCACGAAAGUGAUAGUUACACAAGUGUAAUAACAUGAGGAUCACCCAUGUCCUCAUUUGCUCGUCUUAU [Sensor 3 - 34] (puzzle: Sensor v3, turn-off variant 2)
- apparent KD of MS2 coat protein [3]: 149 nM
- apparent KD of MS2 coat protein [1]: 162 nM
- apparent KD of MS2 coat protein [4]: 33.6 nM
